This note sets out measurements from the supplement of paper PMC9112550, “Optimization of the antimicrobial peptide Bac7 by deep mutational scanning” (BMC Biology, 2022).

The data set concerns Escherichia coli TOP10. Description: shrunken log2 fold change of peptide-encoding DNA abundance (4.5 h post-induction vs induction); higher = less antimicrobial activity (less host growth inhibition). Particulars: time post-induction: 4.5 h; library: site-saturation at positions 5, 18, 19, 20.
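Further: peptides expressed intracellularly from a pBAD plasmid library in pooled LB shake-flask culture, induced with 0.3% L-arabinose, DNA abundance read by NGS, three biological replicates, DESeq2 with apeglm shrinkage.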

Take RRIRTRPPRLPRPRPRPDDHPRP: the “shrunken log2 fold change” value is -0.00476.

Take RRIRKRPPRLPRPRPRPWQKPRP: the “shrunken log2 fold change” value is 0.121.

Regarding RRIRVRPPRLPRPRPRPCRPPRP, the “shrunken log2 fold change” value was 0.00447.

Take RRIRGRPPRLPRPRPRPRADPRP: the “shrunken log2 fold change” value stood at 1.17.

Turning to RRIRKRPPRLPRPRPRPVGGPRP, the “shrunken log2 fold change” value was 0.544.

Turning to RRIRKRPPRLPRPRPRPLWHPRP, the “shrunken log2 fold change” value was 0.0951.

Consider RRIRQRPPRLPRPRPRPGAAPRP, for which the “shrunken log2 fold change” value turned out to be 0.553.

Take RRIRFRPPRLPRPRPRPLKGPRP: the “shrunken log2 fold change” value is -0.128.

With RRIRHRPPRLPRPRPRPMSHPRP, the “shrunken log2 fold change” value is -0.0479.

RRIRFRPPRLPRPRPRPISQPRP: the “shrunken log2 fold change” value is -0.588.

On to RRIRLRPPRLPRPRPRPRRTPRP, for which the “shrunken log2 fold change” value stood at 0.354.

Take RRIRKRPPRLPRPRPRPFEWPRP: the “shrunken log2 fold change” value is -0.0618.

With RRIRDRPPRLPRPRPRPFYMPRP, the “shrunken log2 fold change” value is -0.735.

For the sequence RRIRNRPPRLPRPRPRPMWIPRP, the “shrunken log2 fold change” value is -0.148.

As for RRIRFRPPRLPRPRPRPTQDPRP, the “shrunken log2 fold change” value was 0.33.

For the sequence RRIRGRPPRLPRPRPRPNNKPRP, the “shrunken log2 fold change” value stood at 0.0225.

On to RRIRVRPPRLPRPRPRPYDNPRP, for which the “shrunken log2 fold change” value was -0.199.

With RRIRNRPPRLPRPRPRPQQKPRP, the “shrunken log2 fold change” value came out at 0.0694.

Take RRIRHRPPRLPRPRPRPLMVPRP: the “shrunken log2 fold change” value was -0.474.

On to RRIRLRPPRLPRPRPRPCASPRP, for which the “shrunken log2 fold change” value came to 0.259.

For the sequence RRIRGRPPRLPRPRPRPMIDPRP, the “shrunken log2 fold change” value was 0.967.

For the sequence RRIRIRPPRLPRPRPRPIPTPRP, the “shrunken log2 fold change” value is -0.0342.

In the case of RRIRFRPPRLPRPRPRPNHEPRP, the “shrunken log2 fold change” value was -0.56.

On to RRIRSRPPRLPRPRPRPHTMPRP, for which the “shrunken log2 fold change” value is -0.163.

As to RRIRPRPPRLPRPRPRPNPHPRP, the “shrunken log2 fold change” value stood at 0.0866.

As to RRIRTRPPRLPRPRPRPAIRPRP, the “shrunken log2 fold change” value was found to be 0.00208.

On to RRIRARPPRLPRPRPRPTHNPRP, for which the “shrunken log2 fold change” value is 0.523.

Take RRIRIRPPRLPRPRPRPGLWPRP: the “shrunken log2 fold change” value came out at 0.0804.

Consider RRIRYRPPRLPRPRPRPVGTPRP, for which the “shrunken log2 fold change” value worked out at 0.238.

For RRIRFRPPRLPRPRPRPPRWPRP, the “shrunken log2 fold change” value amounted to 0.659.

RRIRERPPRLPRPRPRPNNEPRP: the “shrunken log2 fold change” value is -0.525.

For the sequence RRIRWRPPRLPRPRPRPNGSPRP, the “shrunken log2 fold change” value came out at 0.0647.

In the case of RRIRVRPPRLPRPRPRPEGHPRP, the “shrunken log2 fold change” value is -0.0324.

With RRIRNRPPRLPRPRPRPWAGPRP, the “shrunken log2 fold change” value stood at 0.163.

Consider RRIRGRPPRLPRPRPRPNIYPRP, for which the “shrunken log2 fold change” value is -0.13.

Regarding RRIRSRPPRLPRPRPRPYDPPRP, the “shrunken log2 fold change” value was -1.

As for RRIRTRPPRLPRPRPRPPCHPRP, the “shrunken log2 fold change” value is -0.164.

Take RRIRMRPPRLPRPRPRPGLDPRP: the “shrunken log2 fold change” value is 2.44.

Take RRIRIRPPRLPRPRPRPIYWPRP: the “shrunken log2 fold change” value is -0.105.

Consider RRIRDRPPRLPRPRPRPGQQPRP, for which the “shrunken log2 fold change” value was -0.0114.

For RRIRARPPRLPRPRPRPTFGPRP, the “shrunken log2 fold change” value was determined as 0.416.

RRIRNRPPRLPRPRPRPLEAPRP: the “shrunken log2 fold change” value was -0.00641.

On to RRIRPRPPRLPRPRPRPWMSPRP, for which the “shrunken log2 fold change” value was -0.166.

Consider RRIRVRPPRLPRPRPRPNPLPRP, for which the “shrunken log2 fold change” value was -0.167.

As to RRIRKRPPRLPRPRPRPRTNPRP, the “shrunken log2 fold change” value is 0.238.

Consider RRIRCRPPRLPRPRPRPMQAPRP, for which the “shrunken log2 fold change” value stood at 0.249.

In the case of RRIRERPPRLPRPRPRPRNSPRP, the “shrunken log2 fold change” value is -0.639.

With RRIRARPPRLPRPRPRPARDPRP, the “shrunken log2 fold change” value was found to be 0.298.

As to RRIRWRPPRLPRPRPRPNAAPRP, the “shrunken log2 fold change” value worked out at 0.81.

RRIRPRPPRLPRPRPRPHWIPRP: the “shrunken log2 fold change” value is -0.212.

On to RRIRWRPPRLPRPRPRPRTIPRP, for which the “shrunken log2 fold change” value was -0.0129.

With RRIRKRPPRLPRPRPRPNFQPRP, the “shrunken log2 fold change” value stood at 0.287.

In the case of RRIRARPPRLPRPRPRPYCRPRP, the “shrunken log2 fold change” value is -0.885.

On to RRIRDRPPRLPRPRPRPAGHPRP, for which the “shrunken log2 fold change” value is 0.261.

As for RRIRWRPPRLPRPRPRPQQSPRP, the “shrunken log2 fold change” value was -0.0166.

For RRIRQRPPRLPRPRPRPDYVPRP, the “shrunken log2 fold change” value worked out at 0.07.

With RRIRTRPPRLPRPRPRPIWAPRP, the “shrunken log2 fold change” value is -0.085.

Consider RRIRGRPPRLPRPRPRPMEFPRP, for which the “shrunken log2 fold change” value was 0.0673.

In the case of RRIRDRPPRLPRPRPRPWCGPRP, the “shrunken log2 fold change” value is -0.00113.

RRIRCRPPRLPRPRPRPLKFPRP: the “shrunken log2 fold change” value was -0.162.

On to RRIRRRPPRLPRPRPRPEACPRP, for which the “shrunken log2 fold change” value came to 0.463.

On to RRIRVRPPRLPRPRPRPFPGPRP, for which the “shrunken log2 fold change” value was 0.03.

As to RRIRNRPPRLPRPRPRPDPRPRP, the “shrunken log2 fold change” value was 0.562.

For the sequence RRIRHRPPRLPRPRPRPFANPRP, the “shrunken log2 fold change” value is -0.483.

On to RRIRGRPPRLPRPRPRPHPSPRP, for which the “shrunken log2 fold change” value stood at 0.445.

Turning to RRIRGRPPRLPRPRPRPIWRPRP, the “shrunken log2 fold change” value was determined as 0.744.

Regarding RRIRGRPPRLPRPRPRPHPVPRP, the “shrunken log2 fold change” value was found to be 0.412.

As to RRIRTRPPRLPRPRPRPRLNPRP, the “shrunken log2 fold change” value is -0.251.

In the case of RRIRFRPPRLPRPRPRPFKQPRP, the “shrunken log2 fold change” value was -0.242.

Take RRIRQRPPRLPRPRPRPSYYPRP: the “shrunken log2 fold change” value is -0.356.

As to RRIRSRPPRLPRPRPRPNNWPRP, the “shrunken log2 fold change” value is -0.0732.

As for RRIRIRPPRLPRPRPRPHTTPRP, the “shrunken log2 fold change” value worked out at 0.0536.

As to RRIRARPPRLPRPRPRPMQQPRP, the “shrunken log2 fold change” value is 0.281.

For the sequence RRIRNRPPRLPRPRPRPEPIPRP, the “shrunken log2 fold change” value amounted to 0.0458.

As for RRIRSRPPRLPRPRPRPAWGPRP, the “shrunken log2 fold change” value amounted to 0.51.

Take RRIRMRPPRLPRPRPRPVFRPRP: the “shrunken log2 fold change” value was -0.0467.

Take RRIRQRPPRLPRPRPRPIIAPRP: the “shrunken log2 fold change” value came to 0.00878.

With RRIRTRPPRLPRPRPRPRQFPRP, the “shrunken log2 fold change” value was -0.0836.

As for RRIRCRPPRLPRPRPRPESMPRP, the “shrunken log2 fold change” value turned out to be 0.114.

On to RRIRKRPPRLPRPRPRPTQDPRP, for which the “shrunken log2 fold change” value turned out to be 1.3.

On to RRIRKRPPRLPRPRPRPCTIPRP, for which the “shrunken log2 fold change” value is -0.204.

Regarding RRIRSRPPRLPRPRPRPFRIPRP, the “shrunken log2 fold change” value is 0.0361.

For RRIRCRPPRLPRPRPRPIKKPRP, the “shrunken log2 fold change” value is -0.0497.

As to RRIRQRPPRLPRPRPRPPNKPRP, the “shrunken log2 fold change” value is 0.116.

As to RRIRYRPPRLPRPRPRPQIGPRP, the “shrunken log2 fold change” value amounted to 0.00262.

For RRIRLRPPRLPRPRPRPCVSPRP, the “shrunken log2 fold change” value is -0.108.

Regarding RRIRYRPPRLPRPRPRPIKTPRP, the “shrunken log2 fold change” value is -0.154.

Consider RRIRKRPPRLPRPRPRPNLVPRP, for which the “shrunken log2 fold change” value was -0.0428.

As for RRIRYRPPRLPRPRPRPIPKPRP, the “shrunken log2 fold change” value came out at 0.141.

In the case of RRIRHRPPRLPRPRPRPKWAPRP, the “shrunken log2 fold change” value was found to be 0.279.

Turning to RRIRGRPPRLPRPRPRPVGQPRP, the “shrunken log2 fold change” value came out at 0.145.

For the sequence RRIRWRPPRLPRPRPRPLEQPRP, the “shrunken log2 fold change” value stood at 0.392.

On to RRIRGRPPRLPRPRPRPFQGPRP, for which the “shrunken log2 fold change” value was -0.0101.

In the case of RRIRTRPPRLPRPRPRPSNYPRP, the “shrunken log2 fold change” value is -1.22.

In the case of RRIRVRPPRLPRPRPRPSCNPRP, the “shrunken log2 fold change” value is -0.509.

For the sequence RRIRRRPPRLPRPRPRPCTSPRP, the “shrunken log2 fold change” value was determined as 0.0211.

In the case of RRIRIRPPRLPRPRPRPFTLPRP, the “shrunken log2 fold change” value was found to be 0.0488.

In the case of RRIRRRPPRLPRPRPRPQLWPRP, the “shrunken log2 fold change” value came out at 0.146.

For the sequence RRIRDRPPRLPRPRPRPLRSPRP, the “shrunken log2 fold change” value was 0.294.

With RRIRLRPPRLPRPRPRPKKPPRP, the “shrunken log2 fold change” value stood at 0.0873.

As for RRIRRRPPRLPRPRPRPSWPPRP, the “shrunken log2 fold change” value was 0.0963.

With RRIRVRPPRLPRPRPRPGFIPRP, the “shrunken log2 fold change” value was -0.202.

Consider RRIRARPPRLPRPRPRPVEEPRP, for which the “shrunken log2 fold change” value is 1.03.

As for RRIRGRPPRLPRPRPRPMIEPRP, the “shrunken log2 fold change” value worked out at 0.953.

RRIRHRPPRLPRPRPRPFRAPRP: the “shrunken log2 fold change” value was -0.211.

For the sequence RRIRARPPRLPRPRPRPKVAPRP, the “shrunken log2 fold change” value was found to be 0.698.

Consider RRIRERPPRLPRPRPRPDYLPRP, for which the “shrunken log2 fold change” value was -0.612.

With RRIRRRPPRLPRPRPRPNGWPRP, the “shrunken log2 fold change” value turned out to be 0.282.

Regarding RRIRGRPPRLPRPRPRPKCPPRP, the “shrunken log2 fold change” value turned out to be 0.625.

For the sequence RRIRARPPRLPRPRPRPTQVPRP, the “shrunken log2 fold change” value amounted to 0.224.

As for RRIRKRPPRLPRPRPRPTDQPRP, the “shrunken log2 fold change” value amounted to 0.536.

On to RRIRQRPPRLPRPRPRPICDPRP, for which the “shrunken log2 fold change” value is -0.0181.

For the sequence RRIRYRPPRLPRPRPRPMSLPRP, the “shrunken log2 fold change” value came to 0.0155.

Regarding RRIRPRPPRLPRPRPRPYRIPRP, the “shrunken log2 fold change” value was -0.384.

Take RRIRMRPPRLPRPRPRPIAYPRP: the “shrunken log2 fold change” value was determined as 0.0419.

As to RRIRMRPPRLPRPRPRPVDNPRP, the “shrunken log2 fold change” value stood at 0.113.

Turning to RRIRQRPPRLPRPRPRPVISPRP, the “shrunken log2 fold change” value worked out at 0.0289.

RRIRYRPPRLPRPRPRPYATPRP: the “shrunken log2 fold change” value is -0.175.

With RRIRRRPPRLPRPRPRPLMGPRP, the “shrunken log2 fold change” value was 0.018.

On to RRIRLRPPRLPRPRPRPMSFPRP, for which the “shrunken log2 fold change” value is -0.284.

Take RRIRCRPPRLPRPRPRPVILPRP: the “shrunken log2 fold change” value was -0.799.

RRIRMRPPRLPRPRPRPPFDPRP: the “shrunken log2 fold change” value was found to be 0.873.

RRIRSRPPRLPRPRPRPFEAPRP: the “shrunken log2 fold change” value is 0.14.

Consider RRIRARPPRLPRPRPRPYDEPRP, for which the “shrunken log2 fold change” value was -0.0107.

In the case of RRIRKRPPRLPRPRPRPGAKPRP, the “shrunken log2 fold change” value is 1.16.
